Measured values taken from patent US20090155164A1 (Amgen, published 2009).
Like-named read-outs stand apart in the source and are kept apart here.

Assays:
[1] = target: T1, human c-fms, full length, on cells (human, UniProt P07333 20-972); assay: cell-based or functional assay
[2] = target: T2, monomeric human c-fms (residues 1-512)-pHis (human, UniProt P07333 20-512); assay: Biacore (summary table)
T2 construct: Construct stated as residues 1-512; signal stated as amino acids 1-19 and left out; also called human c-fms (1-512).pHIS; monomeric c-fms
T2 sequence (P07333 20-512): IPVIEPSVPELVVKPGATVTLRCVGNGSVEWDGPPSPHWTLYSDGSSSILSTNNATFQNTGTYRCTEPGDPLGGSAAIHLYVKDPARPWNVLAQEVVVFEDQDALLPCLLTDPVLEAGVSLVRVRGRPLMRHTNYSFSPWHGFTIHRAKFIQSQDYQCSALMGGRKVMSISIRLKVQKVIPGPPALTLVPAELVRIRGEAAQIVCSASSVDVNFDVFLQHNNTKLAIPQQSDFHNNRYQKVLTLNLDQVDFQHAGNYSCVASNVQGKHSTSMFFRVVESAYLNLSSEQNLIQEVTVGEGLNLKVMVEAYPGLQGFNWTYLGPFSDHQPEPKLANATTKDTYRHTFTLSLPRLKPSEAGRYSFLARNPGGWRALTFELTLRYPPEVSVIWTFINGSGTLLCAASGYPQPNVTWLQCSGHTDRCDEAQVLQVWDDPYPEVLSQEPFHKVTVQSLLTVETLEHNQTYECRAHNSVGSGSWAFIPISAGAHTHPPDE
Method: (§1) Anti-c-fms 1.2 or 1.2 SM at 0.25 μg/ml was injected over goat anti-human IgG, Fcγ in one flow cell for 2 minutes at 10 μl/min to obtain a surface density of ˜47 RUs. Another flow cell with goat anti-human IgG, Fcγ alone was used as a reference surface. Each assay started with ten cycles of buffer as the analyte to stabilize the signal. […] Each complex was allowed to associate for 2 minutes, and dissociate for 5 minutes. The surfaces were regenerated after each c-fms or buffer injection with a 30-second pulse of 10 mM glycine HCl, pH 1.5 at 100 μl/min, followed by a 30-second injection of buffer.
(§2) Other anti-c-fms antibodies were tested in a similar manner, but changes were made to the protocol to account for differences in binding characteristics.
(§3) Data was double referenced by subtracting the reference surface responses to remove bulk refractive index changes, and then subtracting the averaged buffer blank response to remove systematic artifacts from the experimental flow cells.

[3] = target: T2, monomeric human c-fms (residues …); assay: Biacore, monomeric c-fms
Method: (§4) The binding affinities of the somatic mutation corrected antibodies to monomeric c-fms protein were measured by surface plasmon resonance using a Biacore 3000 instrument.
(§5) The affinity of human c-fms (1-512). pHIS (Amgen) for the anti-c-fms mAbs was measured by Biacore. Experiments were conducted at 25° C. using a Biacore 3000 instrument (Biacore AB) equipped with a CM4 sensor chip. Sensor chips, amine coupling reagents (EDC (1-ethyl-3(3-dimethylaminopropyl)-carbodiimide hydrochloride), NHS (N-hydroxysuccinimide), and ethanolamine-HCl, pH 8.5), 10 mM sodium acetate, pH 5.5, HBS-EP (0.01 M HEPES pH 7.4, 0.15 M NaCl, 3 mM EDTA, 0.005% v/v Surfactant P20), and 10 mM glycine-HCl, pH 1.5 were purchased from Biacore AB. Bovine serum albumin (BSA, Bovuminar Standard Powder) was purchased from Serological Corporation. AffiniPure Goat Anti-Human IgG, Fcγ Fragment Specific was purchased from Jackson ImmunoResearch Laboratories.
as §2

[4] = target: T2, monomeric human c-fms (residues …); assay: SPR, Biacore 3000, monomeric c-fms; reference: parent 2.360
Method: as §4, §5, §2

[5] = target: T1, human c-fms, full length, on cells; assay: inhibition of 125I-hCSF-1 binding to AML-5 cells, 4 C; competitor: 125I-hCSF-1
Method: (§6) A saturation radioligand binding experiment was performed in conjunction with each inhibition assay in order to determine both a KD and […] for hCSF-1 binding to c-fms expressed on the surface of AML-5 cells. Mixtures were set up in 96-well round-bottom microtiter plates with total volumes of 150 μl/well. All reagents were diluted in binding media containing 0.2% sodium azide and experiments were conducted at 4° C. to minimize potential receptor internalization and shedding.
(§7) For the saturation binding assay, ¹²⁵I-hCSF-1 was serially diluted 2-fold, starting at a concentration of ˜1.7 nM and going out 12 wells to a concentration of ˜1.5 pM. Nonspecific binding was measured at a single concentration of ¹²⁵I-hCSF-1 (˜80 pM, in triplicate) in the presence of a 1,000-fold molar excess of unlabeled hCSF-1, and assumed to be a linear function of the concentration of radiolabeled hCSF-1 present.

[6] = target: T1, human c-fms, full length, on cells; assay: inhibition of 125I-CSF-1 binding to AML-5 cells; competitor: 125I-CSF-1 (summary table)
Method: as §6
(§8) Both assays were incubated at 4° C. on a miniorbital shaker for 4 hours, the length of time needed to reach equilibrium as determined in time course experiments. Two 60 μl aliquots of each incubation mixture were transferred to chilled 400 μl polyethylene centrifuge tubes containing 200 μl phthalate oil and spun for 1.5 minutes in a 4° C. tabletop microfuge (Sorvall,) at 9615×g to separate cell associated ¹²⁵I-hCSF-1 from free ¹²⁵I-hCSF-1. The oil tubes were cut, and each cell pellet and supernatant collected in individual 12×75 mm glass tubes and loaded on a COBRA gamma counter (Packard Instrument Company) for cpm measurements. Cpm from duplicate aliquots taken from each well were averaged for analysis.
(§9) Mean K₁ values from 2 experiments were reported (see, TABLE 13).

[7] = target: T2, monomeric human c-fms (residues …); assay: Biacore 3000, 25 C; mAb captured on goat anti-human IgG Fc, monomeric c-fms(1-512)-pHis analyte, 1:1 fit
Method: as §1, §2, §3

[8] = target: T1, human c-fms, full length, on cells; assay: cell-based or functional assay; remark: listed apart in the source
[9] = target: T3, cynomolgus monkey c-fms on primary bone marrow cells (cynomolgus monkey); assay: cell-based or functional assay
[10] = target: T1, human c-fms, full length, on cells; assay: cell-based or functional assay; remark: listed apart in the source
[11] = target: T3, cynomolgus monkey c-fms on primary bone …; assay: cell-based or functional assay; remark: listed apart in the source
[12] = target: T2, monomeric human c-fms (residues …); assay: Biacore, low resolution; hybridoma mAb captured on anti-human IgG, monomeric c-fms-pHis analyte at 125 nM
Method: Anti-human IgG was immobilized on all four flow cells of a sensor chip using amine coupling. Crude hybridoma samples were diluted into halves and captured on the anti-IgG surface. […] Sequence lineage analyses were also performed on the 29 hybridomas (see, FIG. 2).

[13] = target: T1, human c-fms, full length, on cells; assay: cell-based or functional assay; remark: listed apart in the source
[14] = target: T3, cynomolgus monkey c-fms on primary bone …; assay: cell-based or functional assay; remark: listed apart in the source
[15] = target: T1, human c-fms, full length, on cells; assay: cell-based or functional assay; remark: listed apart in the source
[16] = target: T3, cynomolgus monkey c-fms on primary bone …; assay: cell-based or functional assay; remark: listed apart in the source
[17] = target: T1, human c-fms, full length, on cells; assay: cell-based or functional assay; remark: listed apart in the source
[18] = target: T3, cynomolgus monkey c-fms on primary bone …; assay: cell-based or functional assay; remark: listed apart in the source
[19] = target: T1, human c-fms, full length, on cells; assay: saturation radioligand binding on AML-5 cells, 4 C; 125I-labelled hCSF-1, saturation binding, 4 C
Method: as §7, §8, §9

[20] = target: T1, human c-fms, full length, on cells; assay: inhibition of 125I-hCSF-1 binding to AML-5 cells, 4 C; unlabeled hCSF-1, competitive inhibition of 125I-hCSF-1, 4 C
Method: as §6, §8, §9

[21] = target: T2, monomeric human c-fms (residues …); assay: SPR, Biacore 3000, monomeric c-fms; reference: parent 1.109
Method: as §4, §5, §2

T1 sequence (P07333 20-972): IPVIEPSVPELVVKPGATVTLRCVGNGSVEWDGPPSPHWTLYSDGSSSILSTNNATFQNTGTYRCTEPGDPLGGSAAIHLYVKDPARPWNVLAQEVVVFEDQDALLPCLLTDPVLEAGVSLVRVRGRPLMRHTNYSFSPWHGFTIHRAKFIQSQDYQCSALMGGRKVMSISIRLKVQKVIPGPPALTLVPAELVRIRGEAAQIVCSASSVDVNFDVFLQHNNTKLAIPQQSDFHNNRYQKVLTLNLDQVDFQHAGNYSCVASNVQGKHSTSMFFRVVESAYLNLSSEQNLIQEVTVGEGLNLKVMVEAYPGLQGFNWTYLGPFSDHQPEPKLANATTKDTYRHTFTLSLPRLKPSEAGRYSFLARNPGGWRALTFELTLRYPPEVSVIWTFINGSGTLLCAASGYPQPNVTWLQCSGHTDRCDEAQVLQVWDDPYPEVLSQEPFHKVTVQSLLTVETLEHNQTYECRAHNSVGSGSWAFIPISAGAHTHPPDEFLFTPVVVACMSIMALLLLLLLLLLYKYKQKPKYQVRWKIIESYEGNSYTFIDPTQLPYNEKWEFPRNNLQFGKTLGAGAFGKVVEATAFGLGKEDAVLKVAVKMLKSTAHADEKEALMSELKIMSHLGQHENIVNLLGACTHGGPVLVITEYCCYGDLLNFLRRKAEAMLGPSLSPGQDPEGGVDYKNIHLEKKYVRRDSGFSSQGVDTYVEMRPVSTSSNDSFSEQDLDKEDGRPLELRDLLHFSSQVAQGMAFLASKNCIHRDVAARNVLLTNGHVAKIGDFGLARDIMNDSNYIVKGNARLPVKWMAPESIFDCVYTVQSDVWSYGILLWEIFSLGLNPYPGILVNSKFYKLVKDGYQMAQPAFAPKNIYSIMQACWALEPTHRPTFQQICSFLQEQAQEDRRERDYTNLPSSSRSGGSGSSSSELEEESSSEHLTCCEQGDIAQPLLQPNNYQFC

Kd [2] | Kd [3] | Ki [5] | Ki [6] | Kd [7] | koff [7] | kon [7] | AML-5 bioassay IC50 [8] | Cynomolgus bone marrow bioassay IC50 [9] | AML-5 bioassay IC50 [10] | Cynomolgus bone marrow bioassay IC50 [11] | Kd [12] | koff [12] | kon [12] | Binder | other results
1.2 nM | 1.2 nM | ~0.9 nM | ~0.9 nM | 1.2 nM | 0.000955 s⁻¹ | 794000 M⁻¹ s⁻¹ | – | – | – | – | – | – | – | anti-c-fms IgG2 clone 2.360 SM (somatic mutation cured) (antibody, V domains shown, Recombinant IgG2 kappa; heavy chain Val-79 to Ala, light chain Gln-45 to Lys) VH: QVQLVQSGAEVKKPGASVKVSCKVSGYTLTELSMHWVRQAPGKGLEWMGGFDPEDGETIYAQKFQGRVTMTEDTSTDTAYMELSSLRSEDTAVYYCATGVMITFGGVIVGHSYYGMDVWGQGTTVTVSS VL: DIQMTQSPSSLSASVGDRVTITCRASQGINNYLAWYQQKPGKVPKLLIYVASTLQSGVPSRFSGSGSGTDFTLTISSLQPEDVATYYCQKYNSGPFTFGPGTKVDIKR | AML-5 proliferation assay, loss in potency relative to the parent IgG2 antibody [1]: 10 fold; fold loss of affinity against the parent antibody [4]: 2 fold
– | – | – | – | – | – | – | 0.027 nM | 0.053 nM | 4 ng/mL | 8 ng/mL | 5.6 nM | 0.000338 s⁻¹ | 60500 M⁻¹ s⁻¹ | anti-c-fms hybridoma antibody 2.360 (antibody, IgG2, V domains shown, Hybridoma IgG2 (cohort 2)) VH: QVQLVQSGAEVKKPGASVKVSCKVSGYTLTELSMHWVRQAPGKGLEWMGGFDPEDGETIYAQKFQGRVTMTEDTSTDTVYMELSSLRSEDTAVYYCATGVMITFGGVIVGHSYYGMDVWGQGTTVTVSS VL: DIQMTQSPSSLSASVGDRVTITCRASQGINNYLAWYQQKPGKVPQLLIYVASTLQSGVPSRFSGSGSGTDFTLTISSLQPEDVATYYCQKYNSGPFTFGPGTKVDIK | Human CD14+ monocytes bioassay IC50 [8]: 0.067 nM; Human CD14+ monocytes bioassay IC50 [10]: 10 ng/mL
– | – | – | – | – | – | – | 0.04 nM | 0.167 nM | 6 ng/mL | 25 ng/mL | 4.7 nM | 0.0014 s⁻¹ | 300000 M⁻¹ s⁻¹ | anti-c-fms hybridoma antibody 2.475 (antibody, IgG2, V domains shown, Hybridoma IgG2 (cohort 2); also called 2.475.2) VH: QVQLVESGGGVVQPGRSLRLSCAASGFTFISYGMHWVRQAPGKGLEWVAVIWYDGSNKYYADSVKGRFTISRDNSKNTLYLQMNSLRAEDTAVYYCADSSGDYYGMDVWGQGTTVTVSS VL: DIQMIQSPSSLSASVGDRVTITCQASHDISNYLNWYQQKPGKAPKFLISDASNLETGVPSRFSGSGSGTDFTFTISSLQPEDIATYYCQQYDNLPLTFGGGTKVEIK | Human CD14+ monocytes bioassay IC50 [8]: 0.067 nM; Human CD14+ monocytes bioassay IC50 [10]: 10 ng/mL
0.548 nM | 0.548 nM | 0.0115 nM | 0.0115 nM | 0.548 nM | 0.00199 s⁻¹ | 3.62e+06 M⁻¹ s⁻¹ | – | – | – | – | – | – | – | anti-c-fms IgG2 clone 1.2 SM (somatic mutation cured) (antibody, V domains shown, Recombinant IgG2 kappa; light chain Ser-78 reverted to germline Thr; also called 1.2.1 SM; antibody 1.2 SM) VH: QVQLVQSGAEVKKPGASVKVSCKASGYTFTSYGISWVRQAPGQGLEWMGWISAYNGNTNYAQKLQGRVTMTTDTSTSTAYMELRSLRSDDTAVYYCARESWFGEVFFDYWGQGTLVTVSS VL: not shown | antibody concentration that prevented CSF-1-induced pTyr/c-fms, 293T/c-fms cells [1]: ≥ 0.1 µg/ml; AML-5 bioassay IC50 [13]: 0.012 nM; Cynomolgus bone marrow bioassay IC50 [14]: 0.081 nM; IC50 of 1.2 SM in the presence of hCSF-1, human bone marrow monocytic cell proliferation, Average [15]: 0.0155 nM; IC50 of 1.2 SM in the presence of hCSF-1, human bone marrow monocytic cell proliferation, Expt. 1 [15]: 0.0155 nM; IC50 of 1.2 SM in the presence of hCSF-1, human bone marrow monocytic cell proliferation, Expt. 2 [15]: 0.0201 nM; IC50 of 1.2 SM in the presence of hCSF-1, human bone marrow monocytic cell proliferation, Expt. 3 [15]: 0.0109 nM; IC50 of 1.2 SM in the presence of hCSF-1, cynomolgus bone marrow monocytic cell proliferation, Average [16]: 0.0327 nM; IC50 of 1.2 SM in the presence of hCSF-1, cynomolgus bone marrow monocytic cell proliferation, Expt. 1 [16]: 0.0425 nM; IC50 of 1.2 SM in the presence of hCSF-1, cynomolgus bone marrow monocytic cell proliferation, Expt. 2 [16]: 0.026 nM; IC50 of 1.2 SM in the presence of hCSF-1, cynomolgus bone marrow monocytic cell proliferation, Expt. 3 [16]: 0.0229 nM; AML-5 proliferation IC50 [17]: 0.012 nM; Cynomolgus Bone Marrow Proliferation IC50 [18]: 0.081 nM
– | – | – | – | – | – | – | – | – | – | – | – | – | – | recombinant human CSF-1 (ligand, UniProt P09603 33-190, looked up, also called hCSF-1) EEVSEYCSHMIGSGHLQSLQRLIDSQMETSCQITFEFVDQEQLKDPVCYLKKAFLLVQDIMEDTMRFRDNTPNAIAIVQLQELSLRLKSCFTKDYEEHDKACVRTFYETPLQLLEKVKNVFNETKNLLDKDWNIFSKNCNNSFAECSSQDVVTKPDCN | Kd [19]: 0.046 nM; Ki [20]: 0.0178 nM
0.102 nM | 0.102 nM | 0.0097 nM | 0.0097 nM | 0.102 nM | 0.000271 s⁻¹ | 2.66e+06 M⁻¹ s⁻¹ | – | – | – | – | – | – | – | anti-c-fms IgG2 clone 1.109 SM (somatic mutation cured) (antibody, V domains shown, Recombinant IgG2 kappa; light chain Asn-28 to Asp and Asn-45 to Lys) VH: not shown VL: DIQMTQSPSSLSASVGDRVTITCQASQDISNFLDWYQQKPGKAPKLLIYDASDLDPGVPSRFSGSGSGTDFTFTISSLQPEDIATYYCQQYVSLPLTFGGGTKVEIKR | antibody concentration that prevented CSF-1-induced pTyr/c-fms, 293T/c-fms cells [1]: ≥ 0.1 µg/ml; Cynomolgus bone marrow bioassay IC50 [14]: 0.023 nM; Cynomolgus Bone Marrow Proliferation IC50 [18]: 0.023 nM; fold loss of affinity against the parent antibody [21]: 2 fold
– | – | – | – | – | – | – | 0.1 nM | 0.36 nM | 15 ng/mL | 54 ng/mL | 10 nM | 0.000559 s⁻¹ | 55000 M⁻¹ s⁻¹ | anti-c-fms hybridoma antibody 1.143 (antibody, IgG1, V domains shown, Hybridoma IgG1 (cohort 1); also called 1.143.2; 1.143.1) VH: not shown VL: DIQMTQSPSSLSASVGDRVTITCQASQDINNYLNWYQQKPGKAPKLLIYDTSNLEPGVPSRFSGSGSGTDFTFTISSLQPEDIATYYCQQYDNLLTFGQGTRLEIK | –
